Reference: patent US12286461B2, “Recombinant fused polypeptide and use thereof” (priority 2019, dated 2025)

Tests used:
[1] = tested on: SD rats with CCl4-induced hepatic fibrosis; assay: CCl4-induced hepatic fibrosis animal model; assay type: in vivo; details: 40% CCl4 i.p. twice a week for 8 weeks, fused polypeptides 6 mg/kg s.c. once every five days
Description: Modeling was performed on the rats. Each group other than the blank group was injected with 40% CCl4 intraperitoneally twice a week, the first injection was performed at 3 mL/kg, and then injection was performed at 2 mL/kg. Modeling was performed for 8 weeks to induce hepatic fibrosis. After the intraperitoneal injection of CCl4 for the fourth time, the drugs were administered according to Table 3. After induction for 8 weeks, the administration was stopped. The SD rats were dissected the next day, and blood was taken. The liver tissue was stored in a refrigerator at −80° C. for further use. The expression of HYP in the hepatic tissue of rats was detected. [table]

[2] = tested on: SD rats with bleomycin-induced pulmonary fibrosis; assay: Bleomycin-induced pulmonary fibrosis animal model; assay type: in vivo; details: for Survival rate (%): bleomycin 5 mg/kg intratracheal, dosage 10 mg/kg (Table 2), administration cycle 15 days from day 7 after modeling; for content of TGF-β1 in serum, difference from the model group: fused polypeptides 10 mg/kg s.c. once every five days, nintedanib 25 mg/kg intragastric once a day
Description: SD rats were anesthetized by intraperitoneal injection of 4% chloral hydrate with a concentration of 1 mL/100 g. After anesthesia, the rats were fixed and their necks were disinfected by using cotton with 75% alcohol. The skin of the rat neck was longitudinally cut with scissors, and the fascia and muscle were longitudinally bluntly torn with tweezers to expose the trachea. A syringe was inserted into the trachea to inject 5 mg/kg bleomycin, while a blank group was injected with an equal amount of normal saline. Then a rat plate was quickly erected and rotated, the rats' breathing was observed, the neck wound was sterilized after rotation and was sewn, and an amoxicillin anti-inflammatory drug was sprinkled on the suture. After the operation, the rats were put back into a dry and clean cage for resting, waiting for awakening. The rats were awakened after about 1-2 hours, and then fed normally. On the 7th day after modeling, modeling group animals randomly fell into a model group, a Nintedanib positive drug group, recombinant fused polypeptide 1, 2, 3 and 4 dosage groups, and a normal control group, and the groups were administered separately for an administration cycle of 15 days. Living situations of rats were observed every day and their weights were weighed. After administration for 15 days, the eyeballs were removed and blood was taken, the rats were dissected, and lungs were taken. The content of TGF-β1 in serum and the content of HYP in lung tissues were detected.

pulmonary infections = assay: Mouse pneumonia model, pneumonia caused by pulmonary infections; assay type: in vivo, BALB/C mice; details: BALB/C mouse pneumonia model, nasal drip, average ± standard deviation
Excerpt: (§1) A mouse pneumonia model was successfully established by using a nasal drip method. BALB/C mice with a body weight of 18-24 g were selected, and then anesthetized with ether on day 0, day 1 and day 2, respectively, prepared Streptococcus pneumoniae bacteria solution, adenovirus concentrated solution, Mycoplasma pneumoniae, Chlamydia pneumoniae, protozoa and pneumonia fungi were slowly dropped into the nasal cavity of the mice, so that the bacteria solutions entered the trachea and bronchi, and the bacteria solutions were prevented from flowing into the esophagus during the operation to avoid inactivation of the bacteria solutions, so that the mouse pneumonia model was established. After the model was successfully established, the recombinant fused polypeptides according to the present invention were administered.

protozoa = assay: Mouse pneumonia model, protozoal pneumonia; assay type: in vivo; details: BALB/C mouse pneumonia model, nasal drip; average ± standard deviation
Excerpt: as §1

Mycoplasma pneumoniae = assay: Mouse pneumonia model, mycoplasma pneumonia; assay type: in vivo; details: BALB/C mouse pneumonia model, nasal drip; average ± standard deviation
Excerpt: as §1

adenovirus = assay: Mouse pneumonia model, viral pneumonia; assay type: in vivo; details: BALB/C mouse pneumonia model, nasal drip; average ± standard deviation
Excerpt: as §1

Chlamydia pneumoniae = assay: Mouse pneumonia model, chlamydia pneumonia; assay type: in vivo; details: BALB/C mouse pneumonia model, nasal drip; average ± standard deviation
Excerpt: as §1

pneumonia fungi = assay: Mouse pneumonia model, fungal pneumonia; assay type: in vivo; details: BALB/C mouse pneumonia model, nasal drip; average ± standard deviation
Excerpt: as §1

Streptococcus pneumoniae = assay: Mouse pneumonia model, bacterial pneumonia; assay type: in vivo; details: BALB/C mouse pneumonia model, nasal drip; average ± standard deviation
Excerpt: as §1

[3] = tested on: mice with bleomycin-induced skin fibrosis; assay: Bleomycin-induced skin fibrosis model; assay type: in vivo, C57/BL black mice; details: C57/BL mice, bleomycin 10 μg/mL s.c. daily for 28 days, 10 mg/kg s.c. once every five days, 6 times, FIG. 6
Description: Bleomycin (10 μg/mL) was injected subcutaneously every day for 28 days to form skin fibrosis. During the modeling period, the administration groups were given drugs for treatment. After modeling, the mice were killed on the next day, and the skin tissue of the mouse back was taken to detect the content of HYP in the skin tissue. [table]

[4] = tested on: mice with myocardial fibrosis; assay: Isoprenaline-induced myocardial fibrosis animal model; assay type: in vivo; details: BALB/c mice, isoprenaline 5 mg/kg s.c. daily for 7 days, 12 mg/kg s.c. (Table 5), after the 8th day, FIG. 5
Description: In the model group, the experimental mice were injected with isoprenaline (ISO) (5 mg/kg) subcutaneously on the back of the mice every day for 7 consecutive days, and the mice were injected with normal saline subcutaneously (200 μL/mouse) every day. In the blank group, normal saline was injected subcutaneously (200 μL/mouse) every day. […] After the 8th day, blood was taken and was centrifuged, the supernatant was taken, and the content of TGF-β1 in serum was detected.

[5] = tested on: SD rats with renal fibrosis; assay: Renal fibrosis animal model (ureter ligation); assay type: in vivo; details: 6 mg/kg s.c. once every five days, after 15 days
Description: A renal fibrosis animal model was established. SD rats were anesthetized with 4% chloral hydrate, injected with 1 mL/100 g intraperitoneally, fixed to an operation board, and sterilized in an operation area for further use. […] Muscular layers and abdominal walls were sewed layer by layer, the suture was disinfected with alcohol. After SD rats woke up, the rats were put into a cage for feeding. In the blank group, ureter was not ligated, and other steps were the same.
Then, the animals fell into a blank group, a model group, and recombinant fused polypeptide administration groups, and the administration was started on the second day after the operation, and was performed for 15 days. After administration for 15 days, blood was taken and supernatant was taken to detect the content of TGF-β1 in serum.

[6] = listed as recombinant fused polypeptide I

In the case of `COC(=O)c1ccc2c(c1)NC(=O)/C2=C(\Nc1ccc(N(C)C(=O)CN2CCN(C)CC2)cc1)c1ccccc1` [Nintedanib, nintedanib, reference compound], the “content of HYP in liver tissue, difference from the model group” value ([1]; FIG. 3) is reported as “highly significantly different from the model group (***P<0.001)”, the “Survival rate (%)” value [2] is reported as 85.7% and the “content of TGF-β1 in serum, difference from the model group” value (from here on “content of TGF-β1 in serum, difference”) ([2]; bleomycin pulmonary fibrosis, after 15 days, FIG. 2) is reported as “highly significantly different from the model group (**P<0.01)”.

In the case of Penicillin [reference compound], the “Inhibitory effect, Pneumonia caused by pulmonary infections” value (“Inhibitory effect, Pneumonia caused” for short) (pulmonary infections) is reported as 45.78 ± 3.65, the “Inhibitory effect, Protozoal pneumonia” value (protozoa) is reported as 45.62 ± 5.43 and the “Inhibitory effect, Mycoplasma pneumonia” value (Mycoplasma pneumoniae) is reported as 43.21 ± 4.56. The “Inhibitory effect, Viral pneumonia” value (adenovirus) was 50.07 ± 5.12, the “Inhibitory effect, Chlamydia pneumonia” value (Chlamydia pneumoniae) was 39.13 ± 5.23 and the “Inhibitory effect, Fungal pneumonia” value (pneumonia fungi) was 38.89 ± 2.24. The “Inhibitory effect, Bacterial pneumonia” value (Streptococcus pneumoniae) was 39.21 ± 5.35.

B1: PRCWRGEGGGGIVRRADRAAVPGGGGRGDGGGGSGGGGSGGGGSSDKPGGGGTSLDASIIWAMMQNGGGGLSKL (protein)
chain: PRCWRGEGGGGIVRRADRAAVPGGGGRGDGGGGSGGGGSGGGGSSDKPGGGGTSLDASIIWAMMQNGGGGLSKL
notes: Recombinant fused polypeptide X-linker1-Y expressed in 293 cells
With B1 the “Inhibitory effect, Pneumonia caused” value (pulmonary infections) was 52.47 ± 4.28, the “Inhibitory effect, Pneumonia caused” value (pulmonary infections; [6]) was “inhibitory effect” and the “content of HYP in skin tissue, difference from the model group” value ([3]; listed as recombinant fused polypeptide 1, 10 mg/kg) was “highly significantly different from the model group (**P<0.01)”. For the same molecule, the “content of HYP in skin tissue, difference from the model group” value ([3]; listed as recombinant fused polypeptide I, 10 mg/kg) was “can lower the hydroxyproline content”, the “Inhibitory effect, Protozoal pneumonia” value (protozoa) was 54.26 ± 5.32 and the “Inhibitory effect, Mycoplasma pneumonia” value (Mycoplasma pneumoniae) was 38.47 ± 4.35. The “content of TGF-β1 in serum, difference” value ([4]; listed as recombinant fused polypeptide 1) was “significantly different from the model group (**P<0.01)”, the “content of TGF-β1 in serum, difference” value [4, 6] was “can lower the TGF-β1 content” and the “Inhibitory effect, Viral pneumonia” value (adenovirus) was 54.68 ± 5.23. The “Inhibitory effect, Chlamydia pneumonia” value (Chlamydia pneumoniae) was 39.26 ± 4.66, the “content of TGF-β1 in serum, difference” value ([5]; FIG. 4, listed as recombinant fused polypeptide 1, 6 mg/kg) was “highly significantly different from the model group (***P<0.001)” and the “content of TGF-β1 in serum, difference” value ([5]; FIG. 4, listed as recombinant fused polypeptide I, 6 mg/kg) was “can lower the TGF-β1 content”. For the same molecule, the “Inhibitory effect, Fungal pneumonia” value (pneumonia fungi) was 49.68 ± 5.74, the “Inhibitory effect, Bacterial pneumonia” value (Streptococcus pneumoniae) was 38.43 ± 8.25 and the “content of HYP in liver tissue, difference from the model group” value ([1]; FIG. 3, listed as Recombinant fused polypeptide 1) was “highly significantly different from the model group (***P<0.001)”. For the same molecule, the “content of HYP in liver tissue, difference from the model group” value ([1]; FIG. 3, listed as recombinant fused polypeptide I) was “can lower the HYP content”, the “Survival rate (%)” value [2] was 85.7% and the “Survival rate (%)” value ([2]; listed as fused polypeptide 1) was “equivalent to that of the positive drug group”. For the same molecule, the “hydroxyproline (HYP) content in lung tissue” value ([2]; bleomycin pulmonary fibrosis, 10 mg/kg s.c. once every five days, after 15 days, FIG. 1) was “can lower the hydroxyproline content”, the “content of TGF-β1 in serum, difference” value ([2]; bleomycin pulmonary fibrosis, after 15 days, FIG. 2, listed as fused polypeptide 1) was “highly significantly different from the model group (**P<0.01)” and the “content of TGF-β1 in serum, difference” value ([2]; bleomycin pulmonary fibrosis, after 15 days, FIG. 2, listed as recombinant fused polypeptide I) was “can lower the TGF-β1 content”.
